Laboratory results taken from IntAct's records for PubMed 18786395.

B1: FH1/FH2 domain-containing protein 1 (Homo sapiens), Q9Y613 (parent)
chain: MAGGEDRGDGEPVSVVTVRVQYLEDTDPFACANFPEPRRAPTCSLDGALPLGAQIPAVHRLLGAPLKLEDCALQVSPSGYYLDTELSLEEQREMLEGFYEEISKGRKPTLILRTQLSVRVNAILEKLYSSSGPELRRSLFSLKQIFQEDKDLVPEFVHSEGLSCLIRVGAAADHNYQSYILRALGQLMLFVDGMLGVVAHSDTIQWLYTLCASLSRLVVKTALKLLLVFVEYSENNAPLFIRAVNSVASTTGAPPWANLVSILEEKNGADPELLVYTVTLINKTLAALPDQDSFYDVTDALEQQGMEALVQRHLGTAGTDVDLRTQLVLYENALKLEDGDIEEAPGAGGRRERRKPSSEEGKRSRRSLEGGGCPARAPEPGPTGPASPVGPTSSTGPALLTGPASSPVGPPSGLQASVNLFPTISVAPSADTSSERSIYKARFLENVAAAETEKQVALAQGRAETLAGAMPNEAGGHPDARQLWDSPETAPAARTPQSPAPCVLLRAQRSLAPEPKEPLIPASPKAEPIWELPTRAPRLSIGDLDFSDLGEDEDQDMLNVESVEAGKDIPAPSPPLPLLSGVPPPPPLPPPPPIKGPFPPPPPLPLAAPLPHSVPDSSALPTKRKTVKLFWRELKLAGGHGVSASRFGPCATLWASLDPVSVDTARLEHLFESRAKEVLPSKKAGEGRRTMTTVLDPKRSNAINIGLTTLPPVHVIKAALLNFDEFAVSKDGIEKLLTMMPTEEERQKIEEAQLANPDIPLGPAENFLMTLASIGGLAARLQLWAFKLDYDSMEREIAEPLFDLKVGMEQLVQNATFRCILATLLAVGNFLNGSQSSGFELSYLEKVSEVKDTVRRQSLLHHLCSLVLQTRPESSDLYSEIPALTRCAKVDFEQLTENLGQLERRSRAAEESLRSLAKHELAPALRARLTHFLDQCARRVAMLRIVHRRVCNRFHAFLLYLGYTPQAAREVRIMQFCHTLREFALEYRTCRERVLQQQQKQATYRERNKTRGRMITETEKFSGVAGEAPSNPSVPVAVSSGPGRGDADSHASMKSLLTSRPEDTTHNRRSRGMVQSSSPIMPTVGPSTASPEEPPGSSLPSDTSDEIMDLLVQSVTKSSPRALAARERKRSRGNRKSLRRTLKSGLGDDLVQALGLSKGPGLEV

Variants of: B1
Conditions: with rash_human HRAS

| Variant | effect of a mutation on the interaction |
| --- | --- |
| P41K | increasing interaction |
